{
  "source": "patent US20030166571A1",
  "about": "(SYNVAX, published 2003)",
  "binders": {"B1": {"name": "VII-33-B (peptide)", "peptide": "Ac-R[Phe(4-F)][Phe(4-F)]RWR-NH2", "SMILES": "CC(=O)N[C@@H](CCCNC(=N)N)C(=O)N[C@@H](Cc1ccc(F)cc1)C(=O)N[C@@H](Cc1ccc(F)cc1)C(=O)N[C@@H](CCCNC(=N)N)C(=O)N[C@@H](Cc1c[nH]c2ccccc12)C(=O)N[C@@H](CCCNC(=N)N)C(N)=O", "notes": "also called VII-33-C; Ac-Arg-Phe(4-F)-Phe(4-F)-Arg-Trp-Arg-NH2"}, "B2": {"name": "VII-55-A (peptide)", "peptide": "Ac-RYY[Ahx]WR-NH2", "SMILES": "CC(=O)N[C@@H](CCCNC(=N)N)C(=O)N[C@@H](Cc1ccc(O)cc1)C(=O)N[C@@H](Cc1ccc(O)cc1)C(=O)NCCCCCC(=O)N[C@@H](Cc1c[nH]c2ccccc12)C(=O)N[C@@H](CCCNC(=N)N)C(N)=O", "notes": "also called Ac-Arg-Tyr-Tyr-ε-aminocaproyl-Trp-Arg-NH2"}, "B3": {"name": "VII-39-D (peptide)", "peptide": "Ac-R[Tyr(BN,3-Cl)]YRWR-NH2", "notes": "also called Ac-Arg-Tyr(BN*, 3-Cl)-Tyr-Arg-Trp-Arg-NH2"}, "B4": {"name": "VII-15-B (peptide)", "peptide": "Ac-R[Phe(4-Me)]YRWR-NH2", "SMILES": "CC(=O)N[C@@H](CCCNC(=N)N)C(=O)N[C@@H](Cc1ccc(C)cc1)C(=O)N[C@@H](Cc1ccc(O)cc1)C(=O)N[C@@H](CCCNC(=N)N)C(=O)N[C@@H](Cc1c[nH]c2ccccc12)C(=O)N[C@@H](CCCNC(=N)N)C(N)=O", "notes": "also called Ac-Arg-Phe(4-Me)-Tyr-Arg-Trp-Arg-NH2"}, "B5": {"name": "VII-1-A (peptide)", "peptide": "Nipacotyl-RYYRWR-NH2", "notes": "also called Nipacotyl-Arg-Tyr-Tyr-Arg-Trp-Arg-NH2"}, "B6": {"name": "VII-11-B (peptide)", "peptide": "Ac-R[Phg][Phg]RWR-NH2", "SMILES": "CC(=O)N[C@@H](CCCNC(=N)N)C(=O)N[C@H](C(=O)N[C@H](C(=O)N[C@@H](CCCNC(=N)N)C(=O)N[C@@H](Cc1c[nH]c2ccccc12)C(=O)N[C@@H](CCCNC(=N)N)C(N)=O)c1ccccc1)c1ccccc1", "notes": "also called Ac-Arg-Phg-Phg-Arg-Trp-Arg-NH2"}, "B7": {"name": "VII-37-B (peptide)", "peptide": "Ac-R[Tyr(4-Me)][Tyr(4-Me)]RWR-NH2", "notes": "also called Ac-Arg-Tyr(4-Me)-Tyr(4-Me)-Arg-Trp-Arg-NH2"}, "B8": {"name": "VII-57-C (peptide)", "peptide": "Ac-RYYRW[Ahx]-NH2", "SMILES": "CC(=O)N[C@@H](CCCNC(=N)N)C(=O)N[C@@H](Cc1ccc(O)cc1)C(=O)N[C@@H](Cc1ccc(O)cc1)C(=O)N[C@@H](CCCNC(=N)N)C(=O)N[C@@H](Cc1c[nH]c2ccccc12)C(=O)NCCCCCC(N)=O", "notes": "also called Ac-Arg-Tyr-Tyr-Arg-Trp-ε-aminocaproyl-NH2"}, "B9": {"name": "VII-3-A (peptide)", "peptide": "{β‑aminoisobutryl}-RYYRWR-NH2", "notes": "also called β-aminoisobutryl-Arg-Tyr-Tyr-Arg-Trp-Arg-NH2"}, "B10": {"name": "VII-53-B (peptide)", "peptide": "Ac-[Ahx]YYRWR-NH2", "SMILES": "CC(=O)NCCCCCC(=O)N[C@@H](Cc1ccc(O)cc1)C(=O)N[C@@H](Cc1ccc(O)cc1)C(=O)N[C@@H](CCCNC(=N)N)C(=O)N[C@@H](Cc1c[nH]c2ccccc12)C(=O)N[C@@H](CCCNC(=N)N)C(N)=O", "notes": "also called Ac-ε-aminocaproyl-Tyr-Tyr-Arg-Trp-Arg-NH2"}, "B11": {"name": "VII-19-B (peptide)", "peptide": "Ac-R[Phe(4-COOH)]YRWR-NH2", "SMILES": "CC(=O)N[C@@H](CCCNC(=N)N)C(=O)N[C@@H](Cc1ccc(C(=O)O)cc1)C(=O)N[C@@H](Cc1ccc(O)cc1)C(=O)N[C@@H](CCCNC(=N)N)C(=O)N[C@@H](Cc1c[nH]c2ccccc12)C(=O)N[C@@H](CCCNC(=N)N)C(N)=O", "notes": "also called Ac-Arg-Phe(4-COOH)-Tyr-Arg-Trp-Arg-NH2"}, "B12": {"name": "VII-43-C (peptide)", "peptide": "Ac-R[Phe(4-CN)]YRWR-NH2", "SMILES": "CC(=O)N[C@@H](CCCNC(=N)N)C(=O)N[C@@H](Cc1ccc(C#N)cc1)C(=O)N[C@@H](Cc1ccc(O)cc1)C(=O)N[C@@H](CCCNC(=N)N)C(=O)N[C@@H](Cc1c[nH]c2ccccc12)C(=O)N[C@@H](CCCNC(=N)N)C(N)=O", "notes": "also called Ac-Arg-Phe(4-CN)-Tyr-Arg-Trp-Arg-NH2"}},
  "key": {"[1]": {"molecular_target": "T1, human ORL-1 receptor (opioid receptor like 1) (human, UniProt P41146 1-370)", "T1 sequence (P41146 whole entry)": "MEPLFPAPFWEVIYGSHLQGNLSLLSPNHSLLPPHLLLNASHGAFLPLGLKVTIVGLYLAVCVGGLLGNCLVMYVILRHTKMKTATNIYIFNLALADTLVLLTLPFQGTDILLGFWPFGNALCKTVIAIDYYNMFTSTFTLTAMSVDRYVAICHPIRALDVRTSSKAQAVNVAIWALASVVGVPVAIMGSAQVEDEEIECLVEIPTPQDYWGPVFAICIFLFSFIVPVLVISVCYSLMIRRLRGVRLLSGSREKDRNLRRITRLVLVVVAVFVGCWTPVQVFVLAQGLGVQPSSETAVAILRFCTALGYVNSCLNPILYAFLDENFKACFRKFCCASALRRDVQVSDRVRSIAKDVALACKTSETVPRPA", "assay": "cell-based or functional assay"}, "[2]": {"molecular_target": "T1, human ORL-1 receptor (opioid receptor …)", "assay": "[3H]nociceptin displacement, membranes of CHO cells transfected with human ORL-1; Ki=IC50/(1+L/Kd)", "experimental": "Receptor binding studies were conducted on human ORL1 (opiate receptor like 1) transfected into Chinese hamster ovary (CHO) cells using each of the hexapeptide analog compounds of Table 3. All the compounds were evaluated for binding affinities. […] The data shown in Table 5 represents the average±SEM of at least two experiments conducted in triplicate.\nCells are removed from the plates by scraping with a rubber policeman, and then homogenized in Tris buffer using a Polytron homogenizer. Following this homogenization step, the cellular mixture is centrifuged once and washed by an additional centrifugation at 40,000×g for 15 min. The pellet formed during the centrifugation is re-suspended in 50 mM Tris, pH 7.5. […] Samples of the suspension are then filtered over glass fiber filters using a Wallac cell harvester.\nFor the data in Table 5, binding was conducted as described above. IC₅₀ values and Hill coefficients were determined using the curve-fitting program Prism. K₁ values were calculated using the equation K₁=IC₅₀/(1+[L]/Kd). […] The data in Table 5 represent the average±SEM of at least two experiments conducted in triplicate."}},
  "note": "Numbered stars: 1 amine (or outer) side, 2 acyl side, 3 side chain; on linkers, the order of the positions; unused ones are H or OH. Square brackets hold non-standard residues; d marks the D form. Tyr(BN,3-Cl) = tyrosine with benzyl (BN) and 3-Cl, O=C([C@H](Cc1ccc(OCc2ccccc2)c(Cl)c1)N[*:1])[*:2]; Phe(4-COOH) = N[C@@H](Cc1ccc(C(=O)O)cc1)C(=O)O; Phe(4-CN) = N#Cc1ccc(C[C@H](N)C(=O)O)cc1; Phe(4-F) = N[C@@H](Cc1ccc(F)cc1)C(=O)O; Phe(4-Me) = Cc1ccc(C[C@H](N)C(=O)O)cc1; Phg = N[C@H](C(=O)O)c1ccccc1; Ahx = NCCCCCC(=O)O",
  "data": [
    {"binder": "B1", "values": [
      {"measurement": "% Stimulation of [35S]GTPγS binding", "setting": "[1]", "value": "< 20", "unit": "%"},
      {"measurement": "Ki", "setting": "[2]", "value": 1.51, "unit": "nM"}
    ]},
    {"binder": "B2", "values": [
      {"measurement": "% Stimulation of [35S]GTPγS binding", "setting": "[1]", "value": 26.6, "unit": "%"},
      {"measurement": "EC50 (nM) of stimulation of [35S]GTPγS binding", "setting": "[1]", "value": 1230, "unit": "nM"},
      {"measurement": "Ki", "setting": "[2]", "value": 39, "unit": "nM"}
    ]},
    {"binder": "B3", "values": [
      {"measurement": "% Stimulation of [35S]GTPγS binding", "setting": "[1]", "value": 89, "unit": "%"},
      {"measurement": "EC50 (nM) of stimulation of [35S]GTPγS binding", "setting": "[1]", "value": 0.3, "unit": "nM"},
      {"measurement": "Ki", "setting": "[2]", "value": 0.03, "unit": "nM"}
    ]},
    {"binder": "B4", "values": [
      {"measurement": "% Stimulation of [35S]GTPγS binding", "setting": "[1]", "value": 59.8, "unit": "%"},
      {"measurement": "EC50 (nM) of stimulation of [35S]GTPγS binding", "setting": "[1]", "value": 18.8, "unit": "nM"},
      {"measurement": "Ki", "setting": "[2]", "value": 0.48, "unit": "nM"}
    ]},
    {"binder": "B5", "values": [
      {"measurement": "% Stimulation of [35S]GTPγS binding", "setting": "[1]", "value": "< 20", "unit": "%"},
      {"measurement": "Ki", "setting": "[2]", "value": 30.3, "unit": "nM"}
    ]},
    {"binder": "B6", "values": [
      {"measurement": "Ki", "setting": "[2]", "value": 30.4, "unit": "nM"}
    ]},
    {"binder": "B7", "values": [
      {"measurement": "% Stimulation of [35S]GTPγS binding", "setting": "[1]", "value": "< 20", "unit": "%"},
      {"measurement": "Ki", "setting": "[2]", "value": 6.29, "unit": "nM"}
    ]},
    {"binder": "B8", "values": [
      {"measurement": "% Stimulation of [35S]GTPγS binding", "setting": "[1]", "value": 37.4, "unit": "%"},
      {"measurement": "EC50 (nM) of stimulation of [35S]GTPγS binding", "setting": "[1]", "value": 358, "unit": "nM"},
      {"measurement": "Ki", "setting": "[2]", "value": 41.9, "unit": "nM"}
    ]},
    {"binder": "B9", "values": [
      {"measurement": "% Stimulation of [35S]GTPγS binding", "setting": "[1]", "value": 29.1, "unit": "%"},
      {"measurement": "EC50 (nM) of stimulation of [35S]GTPγS binding", "setting": "[1]", "value": 68, "unit": "nM"},
      {"measurement": "Ki", "setting": "[2]", "value": 1.18, "unit": "nM"}
    ]},
    {"binder": "B10", "values": [
      {"measurement": "% Stimulation of [35S]GTPγS binding", "setting": "[1]", "value": 39.5, "unit": "%"},
      {"measurement": "EC50 (nM) of stimulation of [35S]GTPγS binding", "setting": "[1]", "value": 167, "unit": "nM"},
      {"measurement": "Ki", "setting": "[2]", "value": 29.1, "unit": "nM"}
    ]},
    {"binder": "B11", "values": [
      {"measurement": "% Stimulation of [35S]GTPγS binding", "setting": "[1]", "value": 45.5, "unit": "%"},
      {"measurement": "EC50 (nM) of stimulation of [35S]GTPγS binding", "setting": "[1]", "value": 854, "unit": "nM"},
      {"measurement": "Ki", "setting": "[2]", "value": 40.6, "unit": "nM"}
    ]},
    {"binder": "B12", "values": [
      {"measurement": "% Stimulation of [35S]GTPγS binding", "setting": "[1]", "value": 49.7, "unit": "%"},
      {"measurement": "EC50 (nM) of stimulation of [35S]GTPγS binding", "setting": "[1]", "value": 29.5, "unit": "nM"},
      {"measurement": "Ki", "setting": "[2]", "value": 0.15, "unit": "nM"}
    ]}
  ]
}
